Assay results taken from publication PMC2919855 (Biochemistry, 2010).
pKd: −log10 of the molar value. Non-standard residues stand in square brackets, D forms with d. Residues, ends and D or L forms follow the SMILES beside them. No end group written: not given here. *: point of attachment. Proxyl = 3-carboxy-2,2,5,5-tetramethylpyrrolidinyloxy spin label; TOAC = CC1(C)CC(N)(C(=O)O)CC(C)(C)N1[O]; X1 = CC1(C)CC(C(=O)*)C(C)(C)N1[O]; Aib = CC(C)(N)C(=O)O

How the values were obtained:
[1] = molecular target: rhodopsin in rod outer segment (ROS) membranes (UniProt P02699); test: Meta II stabilization assay
[2] = molecular target: rhodopsin in rod outer segment (ROS) membranes (UniProt P02699); test: time-resolved EPR after a laser flash
[3] = molecular target: rhodopsin in rod outer segment (ROS) membranes (UniProt P02699); test: EPR spectroscopy
[4] = molecular target: T1, rhodopsin in rod outer segments (ROS) (Bos taurus, UniProt P02699); test: Meta II; type: biochemical; conditions: result in words
[5] = molecular target: T1, rhodopsin in rod outer segments (ROS); conditions: cited from earlier work
[6] = molecular target: photoactivated rhodopsin (R*) in ROS membranes (Bos taurus, UniProt P02699); test: Direct binding by EPR: spectral integration of bound and free peptide components
photoactivated rhodopsin (R*) in ROS membranes, sequence (P02699 whole entry): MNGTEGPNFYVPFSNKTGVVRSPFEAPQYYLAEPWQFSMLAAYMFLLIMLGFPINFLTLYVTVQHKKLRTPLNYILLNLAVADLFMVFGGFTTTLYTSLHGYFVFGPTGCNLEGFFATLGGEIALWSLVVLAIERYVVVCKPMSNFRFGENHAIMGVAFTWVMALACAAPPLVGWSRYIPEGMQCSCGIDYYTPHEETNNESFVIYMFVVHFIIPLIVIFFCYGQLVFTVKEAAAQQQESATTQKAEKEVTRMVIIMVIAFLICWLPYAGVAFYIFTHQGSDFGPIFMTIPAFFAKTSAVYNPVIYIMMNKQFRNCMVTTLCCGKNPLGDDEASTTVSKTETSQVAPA

rhodopsin in rod outer segment (ROS) membranes, sequence (P02699 whole entry): as above
T1 sequence (P02699 whole entry): as above

In the case of “TOAC^343-Gtα(340–350) high-affinity peptide”, the pKd [1] was 5.00, the lifetime of binding after the flash (single exponential) [2] was 5.8 ms and the pKd [3] was 4.90.

In the case of “Proxyl-Gtα(340–350): Gtα(340–350) with Proxyl spin label at the amino terminus (Proxyl-IKENLKDCGLF)”, the “ability to stabilize the MII state of rhodopsin” value (“ability” below) [4] was “retained the ability to stabilize the MII state”.

For [Aib]K[Aib][Aib]LKDCGLG, the “activity in stabilization of the MII state of rhodopsin” value [5] is given as “full activity”.

For `CC(C)C[C@H](NC(=O)[C@H](CC(=O)O)NC(=O)[C@H](CCC(=O)O)NC(=O)[C@H](CC(C)C)NC(=O)[C@@H](NC(=O)C1CC(C)(C)N([O])C1(C)C)C(C)C)C(=O)N[C@@H](CCCCN)C(=O)N[C@@H](CO)C(=O)N[C@@H](CS)C(=O)NC1(C(=O)N[C@@H](CC(C)C)C(=O)N[C@@H](Cc2ccccc2)C(=O)O)CC(C)(C)N([O])C(C)(C)C1` (stereo partly drawn) [Proxyl/TOAC^348-Gtα(340–350)] (X1-VLEDLKSC[TOAC]LF-OH), the “ability” value [4] was “retained the ability to stabilize the MII state” and the pKd [6] was 4.19.

Compound “Proxyl-Gtα(340–350) high-affinity peptide” has a pKd [3] of 5.40.

In the case of “IKE-TOAC-LKDCGLF [TOAC^343-Gtα(340–350)]”, the “ability” value [4] was “retained the ability to stabilize the MII state”.
